Results as given in publication doi:10.1101/2022.07.21.500812 (bioRxiv, 2022).

Target: human GPC3 residues 32-483 (hGPC3^core) (human, UniProt P51654 32-483, N-linked glycans at N124 and N241)
Experiment: SPR

Chain of human GPC3 residues 32-483 (hGPC3^core) (P51654 32-483): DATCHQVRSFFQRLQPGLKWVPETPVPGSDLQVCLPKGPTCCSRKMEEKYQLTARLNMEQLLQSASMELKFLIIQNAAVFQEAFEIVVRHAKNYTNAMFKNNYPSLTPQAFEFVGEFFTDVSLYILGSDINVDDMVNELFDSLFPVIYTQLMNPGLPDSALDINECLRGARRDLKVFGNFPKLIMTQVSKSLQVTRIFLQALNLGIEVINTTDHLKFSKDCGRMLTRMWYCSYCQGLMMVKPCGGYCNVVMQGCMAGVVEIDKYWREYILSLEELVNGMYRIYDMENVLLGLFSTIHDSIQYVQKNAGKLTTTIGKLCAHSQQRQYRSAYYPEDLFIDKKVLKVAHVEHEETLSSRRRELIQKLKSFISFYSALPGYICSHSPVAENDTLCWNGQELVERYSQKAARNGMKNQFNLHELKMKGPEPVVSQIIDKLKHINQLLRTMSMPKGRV

B1: mouse Unc5A ectodomain (mUnc5A^ecto, residues 1-359) (domain or fragment)
chain: not shown
B1: binds.
